From patent US20120121589A1, “MODIFIED EGFR ECTODOMAIN” (WAYNE STATE UNIVERSITY, priority 2009, published 2012)
“Also recorded” adds a separate entry of the source. *: point of attachment. Cbz = O=C(OCc1ccccc1)*; CH2F = FC*

Tests used:
MDA-MB-468 cells [1] = experiment: Apoptosis in MDA-MB-468 cells (DNA fragmentation ELISA, acridine orange staining); details: MDA-MB-468 cells preincubated with inhibitor for 3 hours, then EBIP and dasatinib; FIG. 15B
MDA-MB-468 xenografts = MDA-MB-468 xenografts in SCID mice, tumor growth; assay type: in vivo
Description: Severe combined immunodeficient mice xenografts of MDA-MB-468 cells included the following aspects. […] When tumor burden reached 1,500 to 2,000 mg, mice were euthanized. The tumors were removed, cut into 20 to 30 mg fragment, and subsequently transplanted (s.c.) bilaterally into similarly conditioned 28 animals. […] Treatment was started on day 7 and continued until day 23. Animals and tumor burden were followed for up to 55 days. Tumor measurements were carried out at multiple time points during the experimental period. Mice were weighed and monitored for signs of toxicity. Tumor weights in SCID mice were estimated as tumor weight (mg)=(A×B2)/2, where A and B are the tumor length and width (in mm), respectively.

MDA-MB-468 cells [2] = experiment: MTT growth assay and CalcuSyn synergy analysis in MDA-MB-468 cells; assay type: cell-based, human; details: for Dasatinib (Fa): MDA-MB-468
Description: (§1) Growth inhibition assay included the following aspects. […] At the end of the treatment period, cells were incubated with 10% of 5 mg/mL stock of MTT and incubated for 3 hours at 37° C.
(§2) Analysis of interaction between two drugs included the following aspects. Combination index (CI) method adapted for in vitro anticancer drug testing was used to determine the nature of interaction between the two agents as described by Majumdar APN, Banerjee S, Nautiyal J, et al. Curcumin synergizes with resveratrol to inhibit colon cancer. […] Based on CI values, the extent of synergism/antagonism may be determined.

MDA-MB-231 cells = experiment: MTT growth assay and CalcuSyn synergy analysis in MDA-MB-231 cells; assay type: cell-based, human
Description: as §1, §2

[3] = test system: colon cancer HCT-116 cells; experiment: MTT growth assay in colon cancer HCT-116 cells; assay type: cell-based
Description: as §1

HER-2 = target: T1, HER-2 (Homo sapiens, UniProt P04626); experiment: Heregulin-induced phosphorylation of HER-2 in MDA-MB-453 cells; assay type: cell-based; details: preincubation, then heregulin, FIG. 8, FIG. 19
T1 construct: endogenous in cells; host or cells: MDA-MB-453
Source text: (§3) The breast cancer MDA-MB-453 cells contain high levels of HER-2 and HER-3. […] Binding of heregulin HER-3 leads to activation and subsequent heterodimerization of HER-3 with one or more EGFR family members.
(§4) Western blot analysis included the following aspects.

[4] = test system: breast cancer SKBR cell xenografts; experiment: SKBR cell xenografts in SCID mice; assay type: in vivo; details: FIG. 9
Source text: SKBR cells express high levels of HER-2 but contain little no HER-1/EGFR or HER-3.

c-Src = experiment: TGF-α-induced phosphorylation of Src in HCT-116 cells (Western blot); assay type: cell-based; details: prior exposure, FIG. 5
[5] = test system: Erks (extracellular signal-regulated kinases); experiment: TGF-α-induced phosphorylation of ERKs in HCT-116 cells (Western blot); assay type: cell-based; details: prior exposure, FIG. 6
[6] = test system: breast cancer SKBR-3 cells; experiment: MTT growth assay in breast cancer SKBR-3 cells; assay type: cell-based, human; details: increasing concentrations, 48 h; FIG. 7
Description: as §1

EGFR = target: T2, EGFR (Homo sapiens, UniProt P00533); experiment: TGF-α-induced tyrosine phosphorylation of EGFR (Western blot); assay type: cell-based; details: preincubation 10 μg/ml for 30 min; 10 nM TGF-α for 10 min; FIG. 4
T2 construct: endogenous in cells

HER-3 = target: T3, HER-3 (Homo sapiens, UniProt P21860); experiment: Heregulin-induced phosphorylation of HER-3 in MDA-MB-453 cells; assay type: cell-based; details: preincubation, then heregulin, FIG. 8, FIG. 19
T3 construct: endogenous in cells; host or cells: MDA-MB-453
T3 sequence (P21860 20-1342): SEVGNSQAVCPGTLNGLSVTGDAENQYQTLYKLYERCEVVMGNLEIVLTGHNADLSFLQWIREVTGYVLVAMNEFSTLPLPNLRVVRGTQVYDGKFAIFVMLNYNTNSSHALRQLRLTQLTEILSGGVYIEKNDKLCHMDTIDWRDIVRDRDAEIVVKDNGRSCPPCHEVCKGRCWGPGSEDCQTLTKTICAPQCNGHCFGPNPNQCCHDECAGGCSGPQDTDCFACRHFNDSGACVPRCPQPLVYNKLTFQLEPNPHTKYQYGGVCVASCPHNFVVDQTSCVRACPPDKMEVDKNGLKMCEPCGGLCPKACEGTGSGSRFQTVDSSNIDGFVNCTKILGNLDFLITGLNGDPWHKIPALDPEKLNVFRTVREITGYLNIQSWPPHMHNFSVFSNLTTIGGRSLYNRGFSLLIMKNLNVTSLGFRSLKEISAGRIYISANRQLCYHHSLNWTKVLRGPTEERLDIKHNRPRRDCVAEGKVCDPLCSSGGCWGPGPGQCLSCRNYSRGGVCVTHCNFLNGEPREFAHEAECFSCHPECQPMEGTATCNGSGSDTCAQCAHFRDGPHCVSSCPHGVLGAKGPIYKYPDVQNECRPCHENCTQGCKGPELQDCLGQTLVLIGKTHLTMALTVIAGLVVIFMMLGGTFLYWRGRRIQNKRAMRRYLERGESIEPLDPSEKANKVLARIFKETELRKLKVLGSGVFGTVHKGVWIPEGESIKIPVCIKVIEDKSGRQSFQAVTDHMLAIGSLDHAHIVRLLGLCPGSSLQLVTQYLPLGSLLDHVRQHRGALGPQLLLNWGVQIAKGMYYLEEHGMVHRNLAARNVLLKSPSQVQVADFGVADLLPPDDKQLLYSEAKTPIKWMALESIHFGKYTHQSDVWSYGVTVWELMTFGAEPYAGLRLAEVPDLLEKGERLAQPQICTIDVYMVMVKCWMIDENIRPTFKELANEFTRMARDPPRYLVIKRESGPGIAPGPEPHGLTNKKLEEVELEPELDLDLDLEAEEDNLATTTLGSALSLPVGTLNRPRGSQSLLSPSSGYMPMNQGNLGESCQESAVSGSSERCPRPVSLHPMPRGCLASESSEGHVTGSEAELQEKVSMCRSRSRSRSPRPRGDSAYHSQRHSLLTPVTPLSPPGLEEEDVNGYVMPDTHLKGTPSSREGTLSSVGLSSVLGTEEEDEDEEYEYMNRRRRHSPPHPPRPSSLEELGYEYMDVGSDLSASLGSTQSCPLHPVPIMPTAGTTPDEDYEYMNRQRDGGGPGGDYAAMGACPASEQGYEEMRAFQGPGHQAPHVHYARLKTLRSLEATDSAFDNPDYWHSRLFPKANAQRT
Source text: as §3, §4

Question: For Cbz-IETD-CH2F, which “effect of caspase inhibitor on apoptosis induction by the combined therapy” value (MDA-MB-468 cells [1]) is on record?
Answer: blocked apoptosis induction by the combined therapy

Question: Cbz-LEHD-CH2F was tested. Which “effect of caspase inhibitor on apoptosis induction by the combined therapy” value (MDA-MB-468 cells [1]) did it give?
Answer: blocked apoptosis induction by the combined therapy

Question: With `Cc1nc(Nc2ncc(C(=O)Nc3c(C)cccc3Cl)s2)cc(N2CCN(CCO)CC2)n1` [Dasatinib, dasatinib] as the molecule, how does the “tumor growth, significance of inhibition” value (MDA-MB-468 xenografts; P<0.05, FIG. 16, Table 3) read?
Answer: no significant inhibition

Question: What about the “tumor weight at the end of 55 days, Mean ± SD” value (MDA-MB-468 xenografts; day-55, dasatinib 10 mg/kg gavage and/or EBIP 25 μg/mouse s.c., every other day, day 7 to 23) of the same molecule?
Answer: 584 ± 189 mg

Question: What about the “inhibition (suppression) of tumor growth” value (MDA-MB-468 xenografts; vs vehicle-treated controls, dasatinib 10 mg/kg gavage and/or EBIP 25 μg/mouse s.c., every other day) of the same molecule?
Answer: about 27%

Question: What about the “Dasatinib (Fa)” value (MDA-MB-468 cells [2]; Dasatinib 0.50 μM) of the same molecule?
Answer: 0.216

Question: What about the “Dasatinib (Fa)” value (MDA-MB-468 cells [2]; Dasatinib 1.0 μM) of the same molecule?
Answer: 0.286

Question: What about the “Dasatinib (Fa)” value (MDA-MB-468 cells [2]; Dasatinib 2.0 μM) of the same molecule?
Answer: 0.315

Question: And the “Dasatinib (Fa)” value (MDA-MB-468 cells [2]; Dasatinib 4.0 μM)?
Answer: 0.382

Question: And the “Dasatinib (Fa)” value (MDA-MB-231 cells; Dasatinib 0.50 μM)?
Answer: 0.354

Question: What about the “Dasatinib (Fa)” value (MDA-MB-231 cells; Dasatinib 1.0 μM) of the same molecule?
Answer: 0.322

Question: And the “Dasatinib (Fa)” value (MDA-MB-231 cells; Dasatinib 2.0 μM)?
Answer: 0.353

Question: What about the “Dasatinib (Fa)” value (MDA-MB-231 cells; Dasatinib 4.0 μM) of the same molecule?
Answer: 0.392

B1: ERRP: rat ERRP that includes amino acids 1-478 and includes the U region (SEQ ID NO: 16); pan-erbB inhibitor (protein, listed as Rattus norvegicus)
chain: MRPSGTARTTLLVLLTALCAAGGALEEKKVCQGTSNRLTQLGTFEDHFLSLQRMYNNCEVVLGNLEITYVQRNYDLSFLKTIQEVAGYFLIALNTVERIPSEDLQIIRGNALYENTYALAILSNYGTNRTGLRELPMRNLQEILIGAVRFSNNPILCNMDTIQWRDIVQNVFMSNMSMDLQSHPSSCPKCDPSCPNGSCWGGGEENCQKLTKIICAQQCSHRCRGRSPSDCCHNQCAAGCTGPQKSDCLVCQKFQDEATCKDTCPPLMLYNPTTYQMDVNPEGKYSFGATCVKNCPRNYVVTDHGSCVRACGPDYYEVEEDGIRKCKKCDGPCRKVCNGIGIGEFKDTLSINATNIKHFKYCTAISGDLHILPVAFKGDSFTRTPPLDPRELEILKTVKEITGSLLIQAWPENWTDLHAFENLEIIRGRTKQHGQFSLAVVGLNITSLPWQVPSLSWQAVTRPLHPLAQNRVSWDTGP
Question: B1 was tested. Which inhibition of growth ([3]; dose of 20 μg/mL, vs corresponding controls, FIG. 18) did it give?
Answer: 70%

Question: And the “inhibition of heregulin-induced phosphorylation/activation of HER-2” value (HER-2)?
Answer: able to inhibit; also recorded: about as equally effective as EBIP

Question: What about the “tumor growth of SKBR xenografts” value ([4]; SCID mice, vs vehicle) of the same molecule?
Answer: noticeably decreased

Question: And the “inhibition of tumor growth” value ([4]; intratumoral 50 μg once a day, day 13 to 26, end of 40 day period, vs controls)?
Answer: over 50%

Question: And the “attenuation of TGF-α-induced phosphorylation of Tyr416 of c-Src” value (c-Src)?
Answer: abrogated

Question: What about the “inhibition of growth of MDA-MB-468 cells” value (MDA-MB-468 cells [2]; immunoaffinity-purified protein, FIG. 12D) of the same molecule?
Answer: equally effective

Question: And the “attenuation of TGF-α-induced phosphorylation of Erks” value [5]?
Answer: greatly attenuated

Question: What about the “inhibition of growth of SKBR-3 cells” value [6] of the same molecule?
Answer: markedly inhibit the growth in a dose-dependent manner

Question: What about the “attenuation of TGF-α-induced tyrosine phosphorylation of EGFR (amino acid 845)” value (EGFR) of the same molecule?
Answer: greatly abrogates this stimulation

Question: What about the “inhibition of heregulin-induced phosphorylation/activation of HER-3” value (HER-3) of the same molecule?
Answer: able to inhibit; also recorded: about as equally effective as EBIP

B2: rEGFR-447: rat ERRP that includes amino acids 1-447 but lacks the U region (SEQ ID NO: 15) (protein, listed as Rattus norvegicus)
chain: MRPSGTARTTLLVLLTALCAAGGALEEKKVCQGTSNRLTQLGTFEDHFLSLQRMYNNCEVVLGNLEITYVQRNYDLSFLKTIQEVAGYFLIALNTVERIPSEDLQIIRGNALYENTYALAILSNYGTNRTGLRELPMRNLQEILIGAVRFSNNPILCNMDTIQWRDIVQNVFMSNMSMDLQSHPSSCPKCDPSCPNGSCWGGGEENCQKLTKIICAQQCSHRCRGRSPSDCCHNQCAAGCTGPQKSDCLVCQKFQDEATCKDTCPPLMLYNPTTYQMDVNPEGKYSFGATCVKNCPRNYVVTDHGSCVRACGPDYYEVEEDGIRKCKKCDGPCRKVCNGIGIGEFKDTLSINATNIKHFKYCTAISGDLHILPVAFKGDSFTRTPPLDPRELEILKTVKEITGSLLIQAWPENWTDLHAFENLEIIRGRTKQHGQFSLAVVGLNITS
Question: With B2 as the molecule, how does the “inhibition of growth (MTT)” value ([3]; increasing doses, FIG. 3) read?
Answer: only marginally effective

Question: What about the “inhibition of heregulin-induced phosphorylation/activation of HER-2” value (HER-2) of the same molecule?
Answer: neither rEGFR-447 nor hEGFR-501 is effective; also recorded: neither rEGFR-447 nor hEGFR-501 re effective

Question: And the “attenuation of TGF-α-induced phosphorylation of Tyr416 of c-Src” value (c-Src)?
Answer: less attenuation

Question: And the “attenuation of TGF-α-induced phosphorylation of Erks” value [5]?
Answer: not

Question: What about the “inhibition of growth of SKBR-3 cells” value [6] of the same molecule?
Answer: neither rEGFR-447 nor hEGFR-501 caused any apparent change in the growth

Question: What about the “attenuation of TGF-α-induced tyrosine phosphorylation of EGFR (amino acid 845)” value (EGFR) of the same molecule?
Answer: do not attenuate

Question: And the “inhibition of heregulin-induced phosphorylation/activation of HER-3” value (HER-3)?
Answer: neither rEGFR-447 nor hEGFR-501 is effective; also recorded: neither rEGFR-447 nor hEGFR-501 re effective
